Assay: yeast display, Sf9 membrane polyspecificity reagent, FACS + sequencing; frameworks hold sequencing errors
Outline: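 Synthetic nanobody libraries on Saccharomyces cerevisiae BJ5465 were galactose-induced for 36–48 hours, stained 1 hour at 4 °C with 10% biotinylated, detergent-solubilized Sf9 membrane reagent and enriched on streptavidin microbeads. FACS then separated cells into low and high (top ~1%) gates by anti-HA (expression) and streptavidin (reagent binding) fluorescence. Genes were colony-PCR amplified, MiSeq 2 × 250 sequenced and CDR-length filtered. A clone's polyreactivity label is that of its gate of origin.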

Sequence | polyreactivity (PSR sort gate)
QDHLVESGGCLVQAGGTLRLSCAASGFTIGNYAMAWYRQPPGKERELVAAISWSGGSTYYADSVKGRFTISRDNAKNTVYLQMNSLNPEVTAVYYCNPKRGSLWESDYWGQGSQVTVSS | high polyreactivity
QVQLVESGGGLVQAGGSLRLSCAASGSTFWAYVMGWYRQAPGKESELVAAISKSGVRTHYADSVKGRFTISRDNAKNTVYLQMNSLKPEDTAVYYCAAEWSWGPYRFDYWGQGTQVTVSS | high polyreactivity
QVQLVESGGGLVQAGGSLRLSCAASGSILRSNAMGWYRQAPGKERELVAAITFNGGSTYADSVKGRFTISRDNAKNTVYLQMNSLIPEDTAVYYCATGDGPSLFDYWGQGTQVTVSS | low polyreactivity
QVQLVESGGGLVQAGGSLRLSCAASGITFGRNTMGWYRQAPGKERELVAAIDSGGNTYADSVKGRFTISRDNAKNTVYLQMNSLKPEDTAVYYCAAVVYAYLYADYDYWGQGTQVTVSS | low polyreactivity
QVQLVESGGGLVQAGGSLRLSCAASGSTFARYAMGWYRQAPGKDREFVAVSTSGGSTYYADSVNGRFTISRDNAKNPVYLQMNSLKPEDTAVYYCAAQSYFVFGSYRRYYGYDYWGQGTQVTVSW | high polyreactivity
QVQLVESGGGLVKAGGSLRLSCAASGNIFRRYAMGWYRQARGKERELVAAITWRGGNTYYADSVKGRFTISRDNAKNTVYLQMNCLKPEDTAVYYCNRVYRQRLGRDYWGLGTQVTVSS | high polyreactivity
QVQLVESGGGLVQAGGSLRLSCAASGFIFWAYDMGWYRQAPGKERELVAGISKRGGTTYYADSVKGRFTISRDNAKNTVYLQMNSLKPEDTAVYYCAVRLYLEMDYWGQGTQVTVSS | high polyreactivity
QVQLVESGGGLVQAGASLRLSCAASGSTFGSYTMGWYRQAPWKERELVAAINWTGGNTYYADSVKGRFTISRDYAKNTVYLQMNSLKPEDTAVYYCAAAFYIYGVEGDYWGQGTQVTVSS | low polyreactivity
QVHLVESGGGLVQAGGSLRLSCAASGRTFIIYAMGWYRPAPGKERELVADISSGGSTYYADSVKGRFTISRDNAKNTVYLQMNIVKPEDTAVYYCAAQSWYFPIGYDYWGQGTQVTVSS | low polyreactivity
QVQLVESGGGLVQAGGSLRLSCAASGSTFPKYAMGWYRPAPGKERELVAAITSRGSTYADSVKGRFTISRDNAKNTVYLPMNSLKPVDTAVYYCAKDSRYASRDYWGQGTQVTVSS | high polyreactivity
QVQLVESGGGLVQAGGSLRLSCAASGRTFTSNGMGWYRQAPGKERELVAAITSGTSTYYADSVKGRFTISRDNAKNTVYLQMNSLKPEDTAVYYCNKLVPRGSSYSTVIRGGGYWGQGTQVTVSS | high polyreactivity
QVQLVESGGGLVQAGGSLRLSCAASGRTFGNYAMGWSRQAPGKERELVAAITFRGGSTYYADSVKGRFTISRDNAKNTVYLQMNSLKPEDTAVYYCNAERYVGHTYFQFDYWGQGTQVTVSS | high polyreactivity
QVQLVESGGGLVQAGGSLRLSCASSGRIFGIYAMGWYRQAPGKESELVARITGGGSTNYADSVKGRFTISRDNAKNTVYLQMNSLKPEDTAVYYCAATVRRIVGNITRYDYWGQGTQVTVSS | low polyreactivity
QVQLVESGGGLVQAGGSLRLSCAPSGRTFYSYAMGWYRHAPGKERELGAAITSSGGSTYYADSVKGRFTISRDNAKNTVYLQMNSLKPEDTAVYDCAAGKPYSSYWSWGYWTNLEDDYWGQGTQVNVSS | high polyreactivity
QVQLVESGGGLVQAGGSLRLSCAASGSTFGYNAMGWYRQAPGKERELVAAISRGGRITYYADSVKGRFTISRDNAKNTVYLQMNSLKQEDTAVYNCAARVQWRGYGYYYWGQGTQVTVSS | high polyreactivity
QVQLVESGGGLVQAGGSLRLSCAASGFTFTGYAMGWYRQAPGKERELVAAISHDGGSTYYADSVKGRFTISRDNAKNTVYLQMNSLKPEDTAVYYCAAAFRAAGRTVRYYWGQGTQVTVSS | high polyreactivity
QVQLVESGGGLVQAGGSLRLSCAASGYTFGTYDMGWYRQAPGKERELVAAISIGGSTNYADSVKGRFTISRDNEKNTVYLQMNSLKPVDTAVYYCAAEVNVGTLLLSVIVEDGDYWGQGTQVTVSS | low polyreactivity
QVQLVESGGGLVQAGGSLRLSCAASGSTFYSYAMGWYRQAPGKEREFVAAIRYSGGRTYADSVKGRFSISRDNAKNTVYLQMNSLKPEDTAVYYCAAVYYSYRWPYDYWGQGTQVTVSS | high polyreactivity
QVQLVESGGGLVQAGGSLRLSCAASGRIFGRYAMGWYRQAPGKERELVAAISGGGSTNYADSVKGRFTISRDNAKNTVYLQMNSLKPEDTAVYYCAADDDWSGVEFDYWGQGTQVTVSS | low polyreactivity
QVQLVESGGGLDQAGGSLRLSCAASGLIFIQNAMGWYRQAPGKEREFVAAISVSGRTYYADSVKGRFTISRDNAKNTVYLQMNSLKPEDTAVYYCAARSRSWRQRYGDFDYWGQGTQVTVSS | low polyreactivity
QVQLVESGGGLVQAGGSLRLSCAASGGTFYRYAMGWYRQAPGNERELVAAISSSGGRTYYADSVKGRFTISRDNAKNTVYVQMNSLKPEDTAVYYCNARYPRLHRTYNYWGQGTQVTVSS | high polyreactivity

From the nanobody polyreactivity screen of Harvey et al. (2022)
